The text below walks through data of US20070180544A1.

For assay [1], the target named is extracellular domain of rat neurexin-1-β (rat-NX1β-1), residues 48-300 (rat) (UniProt Q63373). Nature of the assay: SPR, NX1β immobilised. Background: In SPR one partner is held on a chip, and binding of the other changes the refractive index at the surface.
Assay [2] shares this target. Nature of the assay: SPR, NX1β immobilised; one value told for the four proteins.
For assay [3] the target is unchanged. Nature of the assay: SPR, β-neurexin immobilised; 3 µM.
The target is the same in assay [4]. Nature of the assay: SPR, β-neurexin immobilised; 111 nM.
Assay [5] has the same target. Nature of the assay: SPR (BIAcore), NX1β immobilised.
Assay [6] has the same target. Nature of the assay: SPR (BIAcore), NX1β immobilised; from ka and kd.
Assay [7] shares this target. The assay can be described thus: SPR (BIAcore), NX1β immobilised, NL1 62.5-2000 nM.
Assay [8] has the same target. The assay can be described thus: SPR, NX1β immobilised; treated against native protein.
Assay [9] has the same target. The assay can be described thus: SPR, NX1β immobilised; sialidase II treated against native protein.
Assay [10] has the same target. The assay can be described thus: SPR, NX1β immobilised; deglycosylated against native protein.
Assay [11] has the same target. Nature of the assay: SPR, NX1β immobilised; treated against native protein, 500 nM.

“N303A-NL1-638 (from UniProt Q62765 46-638) (receptor)”: in [1], the increase of NX1β binding activity after PNGase F digestion came to 17%.
On to “N343A-NL1-638 (from UniProt Q62765 46-638) (receptor)”, for which, in assay [2], the increase of NX1β binding activity after PNGase F digestion stood at 229%.
Regarding “R471C-NL3-639 (from UniProt Q62889 35-639) (receptor)”, the fold less β-neurexin binding than wild type in [3] turned out to be 50 fold.
Consider “R473T-NL1-691 (from UniProt Q62765 46-691) (receptor)”, for which the fold less total binding than wild type in assay [4] amounted to 3 fold.
For “S549A-NL1-638 (from UniProt Q62765 46-638) (receptor)”, the increase of NX1β binding activity after PNGase F digestion in assay [2] stood at 229%.
For the molecule “T111A-NL1-638 (from UniProt Q62765 46-638) (receptor)”, the increase of NX1β binding activity after PNGase F digestion in [2] amounted to 229%.
For “soluble truncated NL1 (recombinant, soluble entity; truncation not specified) (from UniProt Q62765 46-691) (receptor)”, in assay [5], the koff (commonly the first-order rate constant of dissociation) was 0.015 s⁻¹ and the kon (in general, the rate constant with which the complex forms) was 50000 M⁻¹ s⁻¹. For the same molecule, in assay [6], the Kd – broadly, the free concentration of one partner at which half of the binding sites on the other are occupied at equilibrium, for simple one-to-one binding – came to 300 nM.

B1: NL1-651 (soluble rat neuroligin-1 truncated by a stop codon at Thr-652, N-terminal FLAG) (receptor)
chain: DYKDDDDKLAAANSSIDLQKLDDVDPLVTTNFGKIRGIKKELNNEILGPVIQFLGVPYAAPPTGEHRFQPPEPPSPWSDIRNATQFAPVCPQNIIDGRLPEVMLPVWFTNNLDVVSSYVQDQSEDCLYLNIYVPTEDVKRISKECARKPGKKICRKGDIRDSGGPKPVMVYIHGGSYMEGTGNLYDGSVLASYGNVIVITVNYRLGVLGFLSTGDQAAKGNYGLLDLIQALRWTSENIGFFGGDPLRITVFGSGAGGSCVNLLTLSHYSEGNRWSNSTKGLFQRAIAQSGTALSSWAVSFQPAKYARILATKVGCNVSDTVELVECLQKKPYKELVDQDVQPARYHIAFGPVIDGDVIPDDPQILMEQGEFLNYDIMLGVNQGEGLKFVENIVDSDDGVSASDFDFAVSNFVDNLYGYPEGKDVLRETIKFMYTDWADRHNPETRRKTLLALFTDHQWVAPAVATADLHSNFGSPTYFYAFYHHCQTDQVPAWADAAHGDEVPYVLGIPMIGPTELFPCNFSKNDVMLSAVVMTYWTNFAKTGDPNQPVPQDTKFIHTKPNRFEEVAWTRYSQKDQLYLHIGLKPRVKEHYRANKVNLWLELVPHLHNLNDISQYTSTTTKVPS
Take B1: the fold binding over NL1-691 in assay [7] came out at 2.5 fold.

B2: NL1-691 (soluble rat neuroligin-1 truncated by a stop codon at Tyr-692, N-terminal FLAG) (receptor)
chain: DYKDDDDKLAAANSSIDLQKLDDVDPLVTTNFGKIRGIKKELNNEILGPVIQFLGVPYAAPPTGEHRFQPPEPPSPWSDIRNATQFAPVCPQNIIDGRLPEVMLPVWFTNNLDVVSSYVQDQSEDCLYLNIYVPTEDVKRISKECARKPGKKICRKGDIRDSGGPKPVMVYIHGGSYMEGTGNLYDGSVLASYGNVIVITVNYRLGVLGFLSTGDQAAKGNYGLLDLIQALRWTSENIGFFGGDPLRITVFGSGAGGSCVNLLTLSHYSEGNRWSNSTKGLFQRAIAQSGTALSSWAVSFQPAKYARILATKVGCNVSDTVELVECLQKKPYKELVDQDVQPARYHIAFGPVIDGDVIPDDPQILMEQGEFLNYDIMLGVNQGEGLKFVENIVDSDDGVSASDFDFAVSNFVDNLYGYPEGKDVLRETIKFMYTDWADRHNPETRRKTLLALFTDHQWVAPAVATADLHSNFGSPTYFYAFYHHCQTDQVPAWADAAHGDEVPYVLGIPMIGPTELFPCNFSKNDVMLSAVVMTYWTNFAKTGDPNQPVPQDTKFIHTKPNRFEEVAWTRYSQKDQLYLHIGLKPRVKEHYRANKVNLWLELVPHLHNLNDISQYTSTTTKVPSTDITLRPTRKNSTPVTSAFPTAKQDDPKQQPSPFSVDQRD
For B2, the fold increase in binding after combined sialidase II and PNGase F treatment in assay [8] was 5 fold. In assay [9], this molecule registered a fold increase in binding after sialidase-II treatment of 2 to 2.5 fold. Besides, the fold increase in binding after PNGase F treatment in assay [10] amounted to 3 fold.

B3: NL1-638 (soluble rat neuroligin-1 truncated by a stop codon at Ile-639, N-terminal FLAG) (receptor)
chain: DYKDDDDKLAAANSSIDLQKLDDVDPLVTTNFGKIRGIKKELNNEILGPVIQFLGVPYAAPPTGEHRFQPPEPPSPWSDIRNATQFAPVCPQNIIDGRLPEVMLPVWFTNNLDVVSSYVQDQSEDCLYLNIYVPTEDVKRISKECARKPGKKICRKGDIRDSGGPKPVMVYIHGGSYMEGTGNLYDGSVLASYGNVIVITVNYRLGVLGFLSTGDQAAKGNYGLLDLIQALRWTSENIGFFGGDPLRITVFGSGAGGSCVNLLTLSHYSEGNRWSNSTKGLFQRAIAQSGTALSSWAVSFQPAKYARILATKVGCNVSDTVELVECLQKKPYKELVDQDVQPARYHIAFGPVIDGDVIPDDPQILMEQGEFLNYDIMLGVNQGEGLKFVENIVDSDDGVSASDFDFAVSNFVDNLYGYPEGKDVLRETIKFMYTDWADRHNPETRRKTLLALFTDHQWVAPAVATADLHSNFGSPTYFYAFYHHCQTDQVPAWADAAHGDEVPYVLGIPMIGPTELFPCNFSKNDVMLSAVVMTYWTNFAKTGDPNQPVPQDTKFIHTKPNRFEEVAWTRYSQKDQLYLHIGLKPRVKEHYRANKVNLWLELVPHLHNLND
For B3, the fold binding over NL1-691 in assay [7] is 2.5 fold. In assay [9], this molecule had a fold increase in binding after sialidase-II treatment of 2 to 2.5 fold. Also, in assay [2], the increase of NX1β binding activity after PNGase F digestion turned out to be 229%. Besides, the fold increase in binding after combined sialidase II and PNGase F treatment in [11] is 5 fold. The same molecule returned a fold increase in binding after PNGase F treatment in [10] of 3 fold.
